This note sets out measurements from patent US7138236.

This series concerns p53, unphosphorylated (recombinant full-length).

Turning to “ATR (FRP-1) purified from HeLa nuclear extract”, the “kinase assay of chromatographic fractions, Western blot with p53 Ser15-specific antibodies” value was “this residue is also phosphorylated by a kinase activity associated with ATR”.

Turning to “ATM (A-T mutated) protein purified from HeLa cell nuclear extract”, the “in vitro kinase assay (32P incorporation, autoradiography)” value is reported as “several independently purified ATM preparations were consistently found to phosphorylate p53 with high efficiency”; the “phosphorylation site mapping (tryptic/Asp-N peptides, Edman degradation)” value was “the sites of phosphorylation correspond to p53 residues Ser-15 and Thr-18”.
